Publication PMC9082959, “Mechanism of Assembly of the Non-Covalent Spectrin Tetramerization Domain from Intrinsically Disordered Partners” (Journal of molecular biology, 2013)

Key:
Assay in all cases: ITC; β16β17 at 25–50 μM in the cell titrated with 15–20 injections to 2–2.5 eq of α0α1; one-site binding model; PBS (50 mM sodium phosphate, 150 mM NaCl, pH 7.04), 25 °C; mutants only against the wild-type partner
Settings in all cases: both partners purified
β16β17 C9G = molecular target: T1, β16β17 C9G (human, UniProt P11277 1898-2083, C2012G)
T1 construct: erythrocyte β-spectrin, human, residues 1898-2083 (β16β17); mutant of m2; also called C2012G; source: E. coli C41(DE3), purified (Ni2+ agarose, thrombin cleavage, gel filtration)
T1 sequence (looked up): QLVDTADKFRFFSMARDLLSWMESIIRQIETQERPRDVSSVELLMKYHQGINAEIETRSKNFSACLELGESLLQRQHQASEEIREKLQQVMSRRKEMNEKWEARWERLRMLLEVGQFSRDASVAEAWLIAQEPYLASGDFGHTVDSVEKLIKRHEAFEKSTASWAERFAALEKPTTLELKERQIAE

β16β17 K53A = molecular target: T2, β16β17 K53A (human, UniProt P11277 1898-2083, K2056A)
T2 construct: erythrocyte β-spectrin, human, residues 1898-2083 (β16β17); mutant of m2; also called K2056A; source: E. coli C41(DE3), purified (Ni2+ agarose, thrombin cleavage, gel filtration)
T2 sequence (looked up): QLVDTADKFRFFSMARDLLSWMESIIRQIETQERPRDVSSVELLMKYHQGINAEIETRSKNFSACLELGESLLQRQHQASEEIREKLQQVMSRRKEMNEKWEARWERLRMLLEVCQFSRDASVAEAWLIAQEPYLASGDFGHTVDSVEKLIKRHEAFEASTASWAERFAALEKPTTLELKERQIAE

β16β17 A24G = molecular target: T3, β16β17 A24G (human, UniProt P11277 1898-2083, A2027G)
T3 construct: erythrocyte β-spectrin, human, residues 1898-2083 (β16β17); mutant of m2; also called A2027G; source: E. coli C41(DE3), purified (Ni2+ agarose, thrombin cleavage, gel filtration)
T3 sequence (looked up): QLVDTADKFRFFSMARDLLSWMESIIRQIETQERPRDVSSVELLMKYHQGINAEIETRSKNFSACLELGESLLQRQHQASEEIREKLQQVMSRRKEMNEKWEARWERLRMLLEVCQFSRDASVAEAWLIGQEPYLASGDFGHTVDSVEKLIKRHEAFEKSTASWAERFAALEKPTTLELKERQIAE

β16β17 R13A = molecular target: T4, β16β17 R13A (human, UniProt P11277 1898-2083, R2016A)
T4 construct: erythrocyte β-spectrin, human, residues 1898-2083 (β16β17); mutant of m2; also called R2016A; source: E. coli C41(DE3), purified (Ni2+ agarose, thrombin cleavage, gel filtration)
T4 sequence (looked up): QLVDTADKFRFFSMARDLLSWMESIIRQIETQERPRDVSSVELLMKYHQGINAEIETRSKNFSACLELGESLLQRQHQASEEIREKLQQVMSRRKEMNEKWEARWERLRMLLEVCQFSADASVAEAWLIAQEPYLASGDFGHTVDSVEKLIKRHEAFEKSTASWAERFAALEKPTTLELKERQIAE

β16β17 K43G = molecular target: T5, β16β17 K43G (human, UniProt P11277 1898-2083, K2046G)
T5 construct: erythrocyte β-spectrin, human, residues 1898-2083 (β16β17); mutant of m2; also called K2046G; source: E. coli C41(DE3), purified (Ni2+ agarose, thrombin cleavage, gel filtration)
T5 sequence (looked up): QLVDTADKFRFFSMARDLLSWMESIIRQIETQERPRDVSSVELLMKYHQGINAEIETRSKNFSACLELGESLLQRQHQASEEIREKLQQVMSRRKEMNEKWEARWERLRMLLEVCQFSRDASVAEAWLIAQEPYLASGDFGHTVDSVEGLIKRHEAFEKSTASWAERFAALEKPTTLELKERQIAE

β16β17 C9A = molecular target: T6, β16β17 C9A (human, UniProt P11277 1898-2083, C2012A)
T6 construct: erythrocyte β-spectrin, human, residues 1898-2083 (β16β17); mutant of m2; also called C2012A; source: E. coli C41(DE3), purified (Ni2+ agarose, thrombin cleavage, gel filtration)
T6 sequence (looked up): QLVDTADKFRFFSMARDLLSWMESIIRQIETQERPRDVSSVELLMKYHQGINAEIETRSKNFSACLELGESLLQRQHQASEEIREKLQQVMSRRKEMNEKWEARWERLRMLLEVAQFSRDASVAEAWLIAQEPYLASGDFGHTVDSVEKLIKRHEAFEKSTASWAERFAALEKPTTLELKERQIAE

- Ka (β16β17 C9G): 470000 M⁻¹
- Ka (β16β17 K53A): 1.5e+06 M⁻¹
- Ka (β16β17 A24G): 242000 M⁻¹
- Ka (β16β17 R13A): 980000 M⁻¹
- Ka (β16β17 K43G): 328000 M⁻¹
- Ka (β16β17 C9A): 2.7e+06 M⁻¹
B1: α0α1 (erythrocyte α-spectrin residues 2–163), wild type (domain or fragment, human, UniProt P02549 2-163, looked up)
chain: EQFPKETVVESSGPKVLETAEEIQERRQEVLTRYQSFKERVAERGQKLEDSYHLQVFKRDADDLGKWIMEKVNILTDKSYEDPTNIQGKYQKHQSLEAEVQTKSRLMSELEKTREERFTMGHSAHEETKAHIEELRHLWDLLLELTLEKGDQLLRALKFQQY
notes: synthetic gene (GenScript) in a modified pRSETA plasmid; also called α1α0; source: E. coli C41(DE3), purified (Ni2+ agarose, thrombin cleavage, gel filtration)
